Data: US20140087995A1 (published 2014)
Numbered stars: 1 amine (or outer) side, 2 acyl side, 3 side chain; on linkers, the order of the positions; unused ones are H or OH. Bridge positions count the residues as written; N and C are the ends. Side chains are listed from the residue outwards. Ends that are not written are not given here. * marks the point of attachment. C20 diacid = O=C(O)CCCCCCCCCCCCCCCCCCC(=O)*; γGlu = O=C(O)[C@H](CCC(=O)[*:2])N[*:1]; AEEA = NCCOCCOCC(=O)O

T1: rat calcitonin receptor (rat, UniProt P32214 25-516)
T1 construct: whole, on cells; Membranes of transiently transfected BHK tk'ts 13 cells (Assay VIII); also called rCTR
T1 sequence (looked up): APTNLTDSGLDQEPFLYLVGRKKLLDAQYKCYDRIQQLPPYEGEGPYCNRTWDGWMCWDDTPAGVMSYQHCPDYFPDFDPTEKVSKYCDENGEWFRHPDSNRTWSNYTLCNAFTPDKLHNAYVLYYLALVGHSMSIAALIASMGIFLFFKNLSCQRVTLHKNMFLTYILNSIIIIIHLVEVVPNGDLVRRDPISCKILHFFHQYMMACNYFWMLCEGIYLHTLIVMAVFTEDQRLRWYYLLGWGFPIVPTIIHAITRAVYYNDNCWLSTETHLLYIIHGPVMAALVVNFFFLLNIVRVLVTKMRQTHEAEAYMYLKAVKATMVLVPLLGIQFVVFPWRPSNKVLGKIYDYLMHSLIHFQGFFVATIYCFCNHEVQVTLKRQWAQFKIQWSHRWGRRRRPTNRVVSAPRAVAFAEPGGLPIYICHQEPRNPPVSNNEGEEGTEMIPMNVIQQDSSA

T2: human calcitonin receptor (human, UniProt P30988 25-474)
T2 construct: whole, on cells; Membranes of a stably transfected BHK cell line (Assay VII); also called hCTR; hCT
T2 sequence (looked up): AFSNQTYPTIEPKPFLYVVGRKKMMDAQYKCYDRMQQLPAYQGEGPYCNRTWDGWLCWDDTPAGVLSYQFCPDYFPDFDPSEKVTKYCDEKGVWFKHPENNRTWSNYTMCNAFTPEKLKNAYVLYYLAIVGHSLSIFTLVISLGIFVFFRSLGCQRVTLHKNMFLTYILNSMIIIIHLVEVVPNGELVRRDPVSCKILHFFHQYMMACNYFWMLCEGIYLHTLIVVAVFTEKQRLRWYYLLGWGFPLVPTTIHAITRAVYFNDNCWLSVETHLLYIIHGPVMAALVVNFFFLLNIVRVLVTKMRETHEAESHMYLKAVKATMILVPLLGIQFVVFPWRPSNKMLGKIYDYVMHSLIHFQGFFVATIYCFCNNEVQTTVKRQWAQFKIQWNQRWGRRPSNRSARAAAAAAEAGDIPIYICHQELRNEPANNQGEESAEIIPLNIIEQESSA

T3: rat amylin receptor (rat calcitonin receptor + rat RAMP 3) (rat, UniProt P32214 25-516; Q9JJ73 23-147)
T3 construct: whole, on cells; Membranes of transiently transfected BHK tk'ts 13 cells (Assay VI); also called rAmylin-R; rat amylin 3(a) receptor
T3 sequence (looked up) 1: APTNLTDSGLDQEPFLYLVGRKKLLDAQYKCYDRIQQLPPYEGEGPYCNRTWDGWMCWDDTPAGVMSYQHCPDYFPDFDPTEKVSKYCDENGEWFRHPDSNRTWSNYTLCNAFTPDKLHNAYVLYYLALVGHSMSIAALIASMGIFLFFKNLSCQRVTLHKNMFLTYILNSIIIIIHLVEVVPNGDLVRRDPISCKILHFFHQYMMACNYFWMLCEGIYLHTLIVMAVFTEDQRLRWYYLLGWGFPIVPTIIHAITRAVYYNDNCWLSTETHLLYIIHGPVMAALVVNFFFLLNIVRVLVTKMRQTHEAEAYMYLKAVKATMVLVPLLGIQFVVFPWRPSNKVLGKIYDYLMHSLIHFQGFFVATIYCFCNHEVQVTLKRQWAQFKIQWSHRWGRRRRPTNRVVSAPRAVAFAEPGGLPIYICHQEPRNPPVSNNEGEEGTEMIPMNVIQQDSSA
T3 sequence (looked up) 2: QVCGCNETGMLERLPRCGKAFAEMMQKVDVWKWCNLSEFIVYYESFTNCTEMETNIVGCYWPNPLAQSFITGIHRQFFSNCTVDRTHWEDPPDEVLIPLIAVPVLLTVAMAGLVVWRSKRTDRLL


Assays:
rat calcitonin receptor [1] = biological target: T1, rat calcitonin receptor; experiment: ratio IC50 rat calcitonin receptor / IC50 rat amylin receptor (reference)
[2] = biological target: T2, human calcitonin receptor; experiment: ratio IC50 human calcitonin receptor / IC50 human amylin receptor (reference)
Experimental: The resulting pellet was resuspended, homogenized and centrifuged (20.000 rpm, 15 min) in a buffer containing 20 mM Na-HEPES and 0.1 mM EDTA (pH 7.4, buffer 2). The resulting pellet was resuspended in buffer 2 and protein concentration was measured (BCA protein Assay, Pierce). The homogenate was kept cold during the whole procedure. The membranes were kept at −80° C. until use. The assay was performed in a 384 well Optiplate (PerkinElmer) in a total volume of 40 ul. Membranes were mixed with SPA beads. Final concentration of membranes 35 ng/μL final and SPA beads was 0.05 mg/well. Test-compounds were dissolved in DMSO and further diluted in assay buffer (50 mM Hepes, pH 7.4, 1 mM CaCl2, 5 mM MgCl₂, 0.1% OA and 0.02% Tween20). […] The final mixture was incubated with shaking at 400 rpm for 120 min at 25° C. prior to centrifugation (1500 rpm, 10 min). Samples were analyzed on TopCounter™ (Packard). The IC₅₀ was calculated using (one site binding competition analysis) GraphPad Prism5 as a measure of receptor affinity.
Membranes were prepared in the following way; the cells were rinsed with PBS and incubated with Versene for approximately 5 min before harvesting. The cells were flushed with PBS and the cell-suspension was centrifuged for 5 min at 1000 rpm. Cells were homogenized (Ultrathurrax) in a buffer containing 20 mM Na-HEPES and 10 mM EDTA (pH 7.4) and centrifuged at 20.000 rpm for 15 min. The resulting pellet was resuspended, homogenized and centrifuged (20.000 rpm, 15 min) in a buffer containing 20 mM Na-HEPES and 0.1 mM EDTA (pH 7.4, buffer 2). The resulting pellet was resuspended in buffer 2 and protein concentration was measured (BCA protein Assay, Pierce). The homogenate was kept cold during the whole procedure. The membranes were kept at −80° C. until use. Assay was performed in a 384 well Optiplate (PerkinElmer) in a total volume of 40 ul. Membranes were mixed with SPA beads.

rat calcitonin receptor [3] = biological target: T1, rat calcitonin receptor; experiment: SPA competition with 125I-calcitonin, membranes of BHK cells with rat calcitonin receptor (Assay VIII)
[4] = biological target: T3, rat amylin receptor (rat calcitonin …); experiment: SPA competition with 125I-rat amylin, membranes of BHK cells with rat calcitonin receptor + rat RAMP3 (Assay VI)

Row | Ratio rCT/rAmylin binding (rat calcitonin receptor [1]) | Ratio hCT/hAmylin binding [2] | IC50 (rat calcitonin receptor [3]) [nM] | IC50 [4] [nM] | Binder
1 | 74.1 | 42.2 | 18.2 | 0.246 | K([AEEA-C20 diacid])CNTATCATQRLAHFLRHSSPNFGAIPSSTNVGSNTY-NH2 (disulfide 2-7; N-terminus assumed; SMILES CC[C@H](C)[C@H](NC(=O)[C@H](C)NC(=O)CNC(=O)[C@H](Cc1ccccc1)NC(=O)[C@H](CC(N)=O)NC(=O)[C@@H]1CCCN1C(=O)[C@H](CO)NC(=O)[C@H](CO)NC(=O)[C@H](Cc1c[nH]cn1)NC(=O)[C@H](CCCNC(=N)N)NC(=O)[C@H](CC(C)C)NC(=O)[C@H](Cc1ccccc1)NC(=O)[C@H](Cc1c[nH]cn1)NC(=O)[C@H](C)NC(=O)[C@H](CC(C)C)NC(=O)[C@H](CCCNC(=N)N)NC(=O)[C@H](CCC(N)=O)NC(=O)[C@@H](NC(=O)[C@H](C)NC(=O)[C@@H]1CSSC[C@H](NC(=O)[C@@H](N)CCCCNC(=O)COCCOCCNC(=O)CCCCCCCCCCCCCCCCCCC(=O)O)C(=O)N[C@@H](CC(N)=O)C(=O)N[C@@H]([C@@H](C)O)C(=O)N[C@@H](C)C(=O)N[C@@H]([C@@H](C)O)C(=O)N1)[C@@H](C)O)C(=O)N1CCC[C@H]1C(=O)N[C@@H](CO)C(=O)N[C@@H](CO)C(=O)N[C@H](C(=O)N[C@@H](CC(N)=O)C(=O)N[C@H](C(=O)NCC(=O)N[C@@H](CO)C(=O)N[C@@H](CC(N)=O)C(=O)N[C@H](C(=O)N[C@@H](Cc1ccc(O)cc1)C(N)=O)[C@@H](C)O)C(C)C)[C@@H](C)O, also called compound 90) [N^ε1-[2-[2-[2-(19-carboxynonadecanoylamino)ethoxy]ethoxy]acetyl]-[His14,Arg17,Pro21,Pro27]-h-amylin]
2 | 71.3 | 63.4 | 388 | 5.45 | K([AEEA-AEEA-γGlu-C20 diacid])CNTATCATQRLANFLRHSSPNFGAIPSSTNVGRNTY-NH2 (disulfide 2-7; N-terminus assumed; SMILES CC[C@H](C)[C@H](NC(=O)[C@H](C)NC(=O)CNC(=O)[C@H](Cc1ccccc1)NC(=O)[C@H](CC(N)=O)NC(=O)[C@@H]1CCCN1C(=O)[C@H](CO)NC(=O)[C@H](CO)NC(=O)[C@H](Cc1c[nH]cn1)NC(=O)[C@H](CCCNC(=N)N)NC(=O)[C@H](CC(C)C)NC(=O)[C@H](Cc1ccccc1)NC(=O)[C@H](CC(N)=O)NC(=O)[C@H](C)NC(=O)[C@H](CC(C)C)NC(=O)[C@H](CCCNC(=N)N)NC(=O)[C@H](CCC(N)=O)NC(=O)[C@@H](NC(=O)[C@H](C)NC(=O)[C@@H]1CSSC[C@H](NC(=O)[C@@H](N)CCCCNC(=O)COCCOCCNC(=O)COCCOCCNC(=O)CC[C@H](NC(=O)CCCCCCCCCCCCCCCCCCC(=O)O)C(=O)O)C(=O)N[C@@H](CC(N)=O)C(=O)N[C@@H]([C@@H](C)O)C(=O)N[C@@H](C)C(=O)N[C@@H]([C@@H](C)O)C(=O)N1)[C@@H](C)O)C(=O)N1CCC[C@H]1C(=O)N[C@@H](CO)C(=O)N[C@@H](CO)C(=O)N[C@H](C(=O)N[C@@H](CC(N)=O)C(=O)N[C@H](C(=O)NCC(=O)N[C@@H](CCCNC(=N)N)C(=O)N[C@@H](CC(N)=O)C(=O)N[C@H](C(=O)N[C@@H](Cc1ccc(O)cc1)C(N)=O)[C@@H](C)O)C(C)C)[C@@H](C)O, also called compound 95)
3 | 71.1 | 104 | 159 | 2.24 | K([AEEA-AEEA-γGlu-C20 diacid])CNTATCATQRLANFLRHSSPNFGAIPSSTNVGHNTY-NH2 (disulfide 2-7; N-terminus assumed; SMILES CC[C@H](C)[C@H](NC(=O)[C@H](C)NC(=O)CNC(=O)[C@H](Cc1ccccc1)NC(=O)[C@H](CC(N)=O)NC(=O)[C@@H]1CCCN1C(=O)[C@H](CO)NC(=O)[C@H](CO)NC(=O)[C@H](Cc1c[nH]cn1)NC(=O)[C@H](CCCNC(=N)N)NC(=O)[C@H](CC(C)C)NC(=O)[C@H](Cc1ccccc1)NC(=O)[C@H](CC(N)=O)NC(=O)[C@H](C)NC(=O)[C@H](CC(C)C)NC(=O)[C@H](CCCNC(=N)N)NC(=O)[C@H](CCC(N)=O)NC(=O)[C@@H](NC(=O)[C@H](C)NC(=O)[C@@H]1CSSC[C@H](NC(=O)[C@@H](N)CCCCNC(=O)COCCOCCNC(=O)COCCOCCNC(=O)CC[C@H](NC(=O)CCCCCCCCCCCCCCCCCCC(=O)O)C(=O)O)C(=O)N[C@@H](CC(N)=O)C(=O)N[C@@H]([C@@H](C)O)C(=O)N[C@@H](C)C(=O)N[C@@H]([C@@H](C)O)C(=O)N1)[C@@H](C)O)C(=O)N1CCC[C@H]1C(=O)N[C@@H](CO)C(=O)N[C@@H](CO)C(=O)N[C@H](C(=O)N[C@@H](CC(N)=O)C(=O)N[C@H](C(=O)NCC(=O)N[C@@H](Cc1c[nH]cn1)C(=O)N[C@@H](CC(N)=O)C(=O)N[C@H](C(=O)N[C@@H](Cc1ccc(O)cc1)C(N)=O)[C@@H](C)O)C(C)C)[C@@H](C)O, also called compound 97)
4 | 118 | 79.6 | 62.2 | 0.529 | K([AEEA-AEEA-γGlu-C20 diacid])CNTATCATQRLANFLRHSSPNFGAIPSSTPVGSNTY-NH2 (disulfide 2-7; N-terminus assumed; SMILES CC[C@H](C)[C@H](NC(=O)[C@H](C)NC(=O)CNC(=O)[C@H](Cc1ccccc1)NC(=O)[C@H](CC(N)=O)NC(=O)[C@@H]1CCCN1C(=O)[C@H](CO)NC(=O)[C@H](CO)NC(=O)[C@H](Cc1c[nH]cn1)NC(=O)[C@H](CCCNC(=N)N)NC(=O)[C@H](CC(C)C)NC(=O)[C@H](Cc1ccccc1)NC(=O)[C@H](CC(N)=O)NC(=O)[C@H](C)NC(=O)[C@H](CC(C)C)NC(=O)[C@H](CCCNC(=N)N)NC(=O)[C@H](CCC(N)=O)NC(=O)[C@@H](NC(=O)[C@H](C)NC(=O)[C@@H]1CSSC[C@H](NC(=O)[C@@H](N)CCCCNC(=O)COCCOCCNC(=O)COCCOCCNC(=O)CC[C@H](NC(=O)CCCCCCCCCCCCCCCCCCC(=O)O)C(=O)O)C(=O)N[C@@H](CC(N)=O)C(=O)N[C@@H]([C@@H](C)O)C(=O)N[C@@H](C)C(=O)N[C@@H]([C@@H](C)O)C(=O)N1)[C@@H](C)O)C(=O)N1CCC[C@H]1C(=O)N[C@@H](CO)C(=O)N[C@@H](CO)C(=O)N[C@H](C(=O)N1CCC[C@H]1C(=O)N[C@H](C(=O)NCC(=O)N[C@@H](CO)C(=O)N[C@@H](CC(N)=O)C(=O)N[C@H](C(=O)N[C@@H](Cc1ccc(O)cc1)C(N)=O)[C@@H](C)O)C(C)C)[C@@H](C)O, also called compound 96)
